{
  "source": "paper PMC2843198",
  "about": "(The Journal of Biological Chemistry, 2010)",
  "proteins": {"B1": {"name": "TAP-tagged Fun30 (Function unknown now 30) (enzyme, S. cerevisiae, UniProt P31380 1-1131, looked up)", "chain": "MSGSHSNDEDDVVQVPETSSPTKVASSSPLKPTSPTVPDASVASLRSRFTFKPSDPSEGAHTSKPLPSGSPEVALVNLAREFPDFSQTLVQAVFKSNSFNLQSARERLTRLRQQRQNWTWNKNASPKKSETPPPVKKSLPLANTGRLSSIHGNINNKSSKITVAKQKTSIFDRYSNVINQKQYTFELPTNLNIDSEALSKLPVNYNKKRRLVRADQHPIGKSYESSATQLGSAREKLLANRKYGRHANDNDEEEEESMMTDDDDASGDDYTESTPQINLDEQVLQFINDSDIVDLSDLSDTTMHKAQLIASHRPYSSLNAFVNTNFNDKDTEENASNKRKRRAAASANESERLLDKITQSIRGYNAIESVIKKCSSYGDLVTSQMKKWGVQVEGDNSELDLMNLGEDDDDDNDDGNNDNNNSNNNNTAGADATSKEKEDTKAVVEGFDETSAEPTPAPAPAPVERETKRIRNTTKPKVVEDEDDDVDLEAIDDELPQSEHEDDDYEEEDEDYNDEEEDVEYDDGDDDDDDDDEFVATRKNTHVISTTSRNGRKPIVKFFKGKPRLLSPEISLKDYQQTGINWLNLLYQNKMSCILADDMGLGKTCQVISFFAYLKQINEPGPHLVVVPSSTLENWLREFQKFAPALKIEPYYGSLQEREELRDILERNAGKYDVIVTTYNLAAGNKYDVSFLKNRNFNVVVYDEGHMLKNSTSERFAKLMKIRANFRLLLTGTPLQNNLKELMSLLEFIMPNLFISKKESFDAIFKQRAKTTDDNKNHNPLLAQEAITRAKTMMKPFILRRRKDQVLKHLPPKHTHIQYCELNAIQKKIYDKEIQIVLEHKRMIKDGELPKDAKEKSKLQSSSSKNLIMALRKASLHPLLFRNIYNDKIITKMSDAILDEPAYAENGNKEYIKEDMSYMTDFELHKLCCNFPNTLSKYQLHNDEWMQSGKIDALKKLLKTIIVDKQEKVLIFSLFTQVLDILEMVLSTLDYKFLRLDGSTQVNDRQLLIDKFYEDKDIPIFILSTKAGGFGINLVCANNVIIFDQSFNPHDDRQAADRAHRVGQTKEVNITTLITKDSIEEKIHQLAKNKLALDSYISEDKKSQDVLESKVSDMLEDIIYDENSKPKGTKE"}},
  "target": "the molecule itself",
  "assay": "SEC",
  "data": [
    {"protein": "B1", "values": [
      {"measurement": "stoichiometry N", "result": 2}
    ]}
  ]
}
